Target: human acyl ghrelin, Q9UBU3
Sequence (Q9UBU3 whole entry, looked up): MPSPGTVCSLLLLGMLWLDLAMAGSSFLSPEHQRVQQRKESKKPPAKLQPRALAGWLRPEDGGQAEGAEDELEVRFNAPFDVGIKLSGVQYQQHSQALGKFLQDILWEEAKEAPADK

B1: purified human butyrylcholinesterase (wild-type human BChE) (protein)
chain: EDDIIIATKNGKVRGMNLTVFGGTVTAFLGIPYAQPPLGRLRFKKPQSLTKWSDIWNATKYANSCCQNIDQSFPGFHGSEMWNPNTDLSEDCLYLNVWIPAPKPKNATVLIWIYGGGFQTGTSSLHVYDGKFLARVERVIVVSMNYRVGALGFLALPGNPEAPGNMGLFDQQLALQWVQKNIAAFGGNPKSVTLFGESAGAASVSLHLLSPGSHSLFTRAILQSGSFNAPWAVTSLYEARNRTLNLAKLTGCSRENETEIIKCLRNKDPQEILLNEAFVVPYGTPLSVNFGPTVDGDFLTDMPDILLELGQFKKTQILVGVNKDEGTAFLVYGAPGFSKDNNSIITRKEFQEGLKIFFPGVSEFGKESILFHYTDWVDDQRPENYREALGDVVGDYNFICPALEFTKKFSEWGNNAFFYYFEHRSSKLPWPEWMGVMHGYEIEFVFGLPLERRDNYTKAEEILSRSIVKRWANFAKYGNPNETQNNSTSWPVFKSTEQKYLTLNTESTRIMTKLRAQQCRFWTSFFPKVLEMTGNIDEAEWEWKAGFHRWNNYMMDWKNQFNDYTSKKESCVGL
B1 was tested, and the “hydrolysis (deacylation) of acyl ghrelin in vitro; residual acyl ghrelin and desacyl ghrelin by immunoassay” value was “Incubation of a sample containing acyl ghrelin with increasing amounts of human BChE resulted in a decrease in the amount of acyl ghrelin and an increase in the amount of the breakdown product, desacyl ghrelin” and the “time course of acyl ghrelin hydrolysis in vitro” value was “A linear hydrolysis rate was observed”.

B2: A199S/F227A/S287G/A328W/Y332G mutant human BChE (protein)
chain: EDDIIIATKNGKVRGMNLTVFGGTVTAFLGIPYAQPPLGRLRFKKPQSLTKWSDIWNATKYANSCCQNIDQSFPGFHGSEMWNPNTDLSEDCLYLNVWIPAPKPKNATVLIWIYGGGFQTGTSSLHVYDGKFLARVERVIVVSMNYRVGALGFLALPGNPEAPGNMGLFDQQLALQWVQKNIAAFGGNPKSVTLFGESSGAASVSLHLLSPGSHSLFTRAILQSGSANAPWAVTSLYEARNRTLNLAKLTGCSRENETEIIKCLRNKDPQEILLNEAFVVPYGTPLGVNFGPTVDGDFLTDMPDILLELGQFKKTQILVGVNKDEGTWFLVGGAPGFSKDNNSIITRKEFQEGLKIFFPGVSEFGKESILFHYTDWVDDQRPENYREALGDVVGDYNFICPALEFTKKFSEWGNNAFFYYFEHRSSKLPWPEWMGVMHGYEIEFVFGLPLERRDNYTKAEEILSRSIVKRWANFAKYGNPNETQNNSTSWPVFKSTEQKYLTLNTESTRIMTKLRAQQCRFWTSFFPKVLEMTGNIDEAEWEWKAGFHRWNNYMMDWKNQFNDYTSKKESCVGL
B2 was tested, and the “ghrelin hydrolyzing activity in vitro (human ghrelin immunoassay kit: decrease in acyl ghrelin, increase in deacyl ghrelin)” value was “exhibited modest activity, comparable to that of wild type human BChE”.

B3: A199S/S227A/S287G/A328W/Y332G mutant mouse BChE (protein)
chain: EEDFIITTKTGRVRGLSMPVLGGTVTAFLGIPYAQPPLGSLRFKKPQPLNKWPDIHNATQYANSCYQNIDQAFPGFQGSEMWNPNTNLSEDCLYLNVWIPVPKPKNATVMVWIYGGGFQTGTSSLPVYDGKFLARVERVIVVSMNYRVGALGFLAFPGNPDAPGNMGLFDQQLALQWVQRNIAAFGGNPKSITIFGESSGAASVSLHLLCPQSYPLFTRAILESGSANAPWAVKHPEEARNRTLTLAKFTGCSKENEMEMIKCLRSKDPQEILRNERFVLPSDSILGINFGPTVDGDFLTDMPHTLLQLGKVKKAQILVGVNKDEGTWFLVGGAPGFSKDNDSLITRKEFQEGLNMYFPGVSRLGKEAVLFYYVDWLGEQSPEVYRDALDDVIGDYNIICPALEFTKKFAELENNAFFYFFEHRSSKLPWPEWMGVMHGYEIEFVFGLPLGRRVNYTRAEEIFSRSIMKTWANFAKYGHPNGTQGNSTMWPVFTSTEQKYLTLNTEKSKIYSKLRAPQCQFWRLFFPKVLEMTGDIDETEQEWKAGFHRWSNYMMDWQNQFNDYTSKKESCTAL
For B3, the “ghrelin hydrolyzing activity in vitro (human ghrelin immunoassay kit: decrease in acyl ghrelin, increase in deacyl ghrelin)” value was “exhibited enhanced activity (e.g., at least 20-fold more activity), comparable to that of wild type mouse BChE”.
